According to FireProtDB (doi:10.1073/pnas.96.20.11283):
Values joined by “and” are separate entries in the source; they are usually repeats but may differ in a detail not shown here. Equal entries are not always repeated.

Conditions: Homo sapiens, pH 4.2, 20 °C, Urea, CD, sodium acetate 2 mM, whole UniProt chain shown

B1: Alpha-lactalbumin wild type, P00709 (protein)
chain: MRFFVPLFLVGILFPAILAKQFTKCELSQLLKDIDGYGGIALPELICTMFHTSGYDTQAIVENNESTEYGLFQISNKLWCKSSQVPQSRNICDISCDKFLDDDITDDIMCAKKILDIKGIDYWLAHKALCTEKLEQWLCEKL
**Q.** What does the source list for B1?
**A.** denaturant m value (Na2SO4 20 mM): 0.88 kcal/mol/M and 0.67 kcal/mol/M; denaturant midpoint (higher = more stable) (Na2SO4 20 mM): 4.34 M and 5.85 M; denaturant m value (NaCl 30 mM): 0.58 kcal/mol/M; denaturant midpoint (higher = more stable) (NaCl 30 mM): 5.43 M; denaturant midpoint (higher = more stable) (NaClO4 50 mM): 4.62 M and 6.06 M
